Assays:
Assay in all cases: EMSA
OGG1 C146S C146S = OGG1 C146S C146S (UniProt O15527); conditions: EMSA: 0.1 nM DNA, 0.5-4000 nM OGG1, 25 mM Tris-HCl pH 7.6, 175 nM NaCl (sic), 1 mM EDTA, 1 mM DTT, 300 ug/ml BSA, 12% glycerol, 15 min, 4 C
OGG1 C28S C28S = OGG1 C28S C28S (UniProt O15527); conditions: EMSA: 0.1 nM DNA, 0.5-4000 nM OGG1, 25 mM Tris-HCl pH 7.6, 175 nM NaCl (sic), 1 mM EDTA, 1 mM DTT, 300 ug/ml BSA, 12% glycerol, 15 min, 4 C
OGG1 C140S C140S = OGG1 C140S C140S (UniProt O15527); conditions: 8-oxoguanine at position 16 of strand 1, opposite C; EMSA: 0.1 nM DNA, 0.5-4000 nM OGG1, 25 mM Tris-HCl pH 7.6, 175 nM NaCl (sic), 1 mM EDTA, 1 mM DTT, 300 ug/ml BSA, 12% glycerol, 15 min, 4 C
Chain of OGG1 C140S C140S (O15527 whole entry C140S): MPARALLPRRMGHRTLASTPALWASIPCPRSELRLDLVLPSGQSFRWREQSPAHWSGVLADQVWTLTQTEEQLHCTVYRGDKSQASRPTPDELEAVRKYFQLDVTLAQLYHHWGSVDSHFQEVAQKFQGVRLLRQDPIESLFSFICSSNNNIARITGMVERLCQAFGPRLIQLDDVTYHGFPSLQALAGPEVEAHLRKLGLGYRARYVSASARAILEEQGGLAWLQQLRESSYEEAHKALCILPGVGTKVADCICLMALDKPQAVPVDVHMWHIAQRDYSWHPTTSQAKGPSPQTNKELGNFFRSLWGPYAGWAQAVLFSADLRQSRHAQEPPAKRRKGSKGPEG

OGG1 C241S C241S = OGG1 C241S C241S (UniProt O15527); conditions: EMSA: 0.1 nM DNA, 0.5-4000 nM OGG1, 25 mM Tris-HCl pH 7.6, 175 nM NaCl (sic), 1 mM EDTA, 1 mM DTT, 300 ug/ml BSA, 12% glycerol, 15 min, 4 C
Chain of OGG1 C241S C241S (O15527 whole entry C241S): as the sequence (O15527 whole entry C140S) above, with S140C, C241S counted along it

OGG1 C255S C255S = OGG1 C255S C255S (UniProt O15527); conditions: 8-oxoguanine at position 16 of strand 1, opposite C; EMSA: 0.1 nM DNA, 0.5-4000 nM OGG1, 25 mM Tris-HCl pH 7.6, 175 nM NaCl (sic), 1 mM EDTA, 1 mM DTT, 300 ug/ml BSA, 12% glycerol, 15 min, 4 C
Chain of OGG1 C255S C255S (O15527 whole entry C255S): as the sequence (O15527 whole entry C140S) above, with S140C, C255S counted along it

OGG1 C253S C253S = OGG1 C253S C253S (UniProt O15527); conditions: 8-oxoguanine at position 16 of strand 1, opposite C; EMSA: 0.1 nM DNA, 0.5-4000 nM OGG1, 25 mM Tris-HCl pH 7.6, 175 nM NaCl (sic), 1 mM EDTA, 1 mM DTT, 300 ug/ml BSA, 12% glycerol, 15 min, 4 C
Chain of OGG1 C253S C253S (O15527 whole entry C253S): as the sequence (O15527 whole entry C140S) above, with S140C, C253S counted along it

OGG1 WT = OGG1 WT (UniProt O15527); conditions: EMSA: 0.1 nM DNA, 0.5-4000 nM OGG1, 25 mM Tris-HCl pH 7.6, 175 nM NaCl (sic), 1 mM EDTA, 1 mM DTT, 300 ug/ml BSA, 12% glycerol, 15 min, 4 C
Chain of OGG1 WT (O15527 whole entry): as the sequence (O15527 whole entry C140S) above, with S140C counted along it

[1] = 8-oxoguanine at position 16 of strand 1, opposite C
[2] = tetrahydrofuran abasic analog at position 16 of strand 1 (written N), opposite base Y is C or A, not stated for this assay (written N)

Chain of OGG1 C146S C146S (O15527 whole entry C146S): as the sequence (O15527 whole entry C140S) above, with S140C, C146S counted along it
Chain of OGG1 C28S C28S (O15527 whole entry C28S): as the sequence (O15527 whole entry C140S) above, with C28S, S140C counted along it

CGTTCAACGTGCACTGACAGCACGTCCCAT (double strand) [8-oxoG:C 30-mer duplex]
binding signal (fold increase in Kd vs WT) (OGG1 C146S C146S; [1]): 10
binding signal (fold increase in Kd vs WT) (OGG1 C28S C28S; [1]): 10
binding signal (fold increase in Kd vs WT) (OGG1 C140S C140S): 10
binding signal (fold increase in Kd vs WT) (OGG1 C241S C241S; [1]): 10
binding signal (fold increase in Kd vs WT) (OGG1 C255S C255S): 10
binding signal (fold increase in Kd vs WT) (OGG1 C253S C253S): 10
Kd (OGG1 WT; [1]): 1.9 nM

CGTTCAACGTGCACTGACAGCACGTCCCAT / ATGGGACGTGCTGTAAGTGCACGTTGAACG [8-oxoG:A 30-mer duplex]
Kd (OGG1 WT; 8-oxoguanine at position 16 of strand 1, opposite A): 201 nM

CGTTCAACGTGCACTNACAGCACGTCCCAT (double strand) [THF 30-mer duplex]
Kd (OGG1 C146S C146S; [2]): 9.9 nM
Kd (OGG1 C28S C28S; [2]): 2.2 nM
Kd (OGG1 C241S C241S; [2]): 3.5 nM
Kd (OGG1 WT; [2]): 0.6 nM

Reference: paper PMC7948458
